# In the supplement of paper PMC12042874:
# ± gives the uncertainty stated by the source.
# Experiment: amyloid nucleation score (Sup35N fusion, yeast selection) (log enrichment); library NNK2; higher = more nucleation; inactive = no reads after selection
# Procedure, shortened: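 The nucleation score is a DiMSum log enrichment of output over input reads, centred on the mode score of non-aggregating sequences. Sequences under 100 input reads were excluded, and reads came from Illumina sequencing of plasmid inserts. Psi-negative yeast expressing Sup35N fused to peptides of 20 random codons were induced with 100 μM copper sulfate for 24 hours and grown 7 days at 30°C on medium lacking adenine and uracil. Random libraries had three technical output replicates.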
substance,measurement,value
AVWAEEGMPLMLGACRRTWG,amyloid nucleation score,1.25 ± 0.26
WRGSLTSPAPGET,amyloid nucleation score,1.87 ± 0.17
MPCLFVF,amyloid nucleation score,2.28 ± 0.17
ISKLTTRLLIYERNFPNWGH,amyloid nucleation score,3.19 ± 0.17
VLFEFTC,amyloid nucleation score,4.33 ± 0.05
LLNFYGGMWRGYLTLRYVFG,amyloid nucleation score,0.201 ± 0.6
LWITVRATPRLDRS,amyloid nucleation score,1.03 ± 0.21
KIYSTSYDNNTSYISCVWSH,amyloid nucleation score,6.708 ± 0.029
LCEALRFVIYCKLTSFVPFN,amyloid nucleation score,-0.632 ± 0.61
RLLNPRVSKVWICAHNARDL,amyloid nucleation score,1.1 ± 0.24
TTLRPLYSTWGSQMVFPGLC,amyloid nucleation score,0.409 ± 0.8
VTPTEGCSVSHVRSRSLKNA,amyloid nucleation score,-0.511 ± 0.49
VVSVFSSYVRQCCYGGWEV,amyloid nucleation score,6.67 ± 0.077
DIRIL,amyloid nucleation score,-0.635 ± 0.44
LSSTFLNFA,amyloid nucleation score,inactive
PSLLFFSCV,amyloid nucleation score,-0.366 ± 0.56
KVHNLMGESGIKLYYVRFAH,amyloid nucleation score,inactive
DVHRWKIWQASG,amyloid nucleation score,0.901 ± 0.26
NESNYRVVRGKFKSEFRAEL,amyloid nucleation score,3.61 ± 0.13
SVWDYC,amyloid nucleation score,-0.053 ± 0.39
ALGSRSTDSGSWITNFLSSR,amyloid nucleation score,-0.213 ± 0.79
SLFLDDKEWMKGITKFLMDP,amyloid nucleation score,0.419 ± 0.51
DSDHIYNRERQVIFGG,amyloid nucleation score,-0.607 ± 0.5
RPVCKFL,amyloid nucleation score,0.275 ± 0.5
FLLECSWFCVYTIGFYYRNI,amyloid nucleation score,inactive
EALKVWERLCRLCSFWSYRK,amyloid nucleation score,7.871 ± 0.039
APHGLRKHSIMVAGMLRSVG,amyloid nucleation score,2.68 ± 0.14
YIISYFLKMGSQ,amyloid nucleation score,4.95 ± 0.092
SNNAI,amyloid nucleation score,0.476 ± 0.56
TLCMSRGNSYCCMQSFSEKD,amyloid nucleation score,5.05 ± 0.063
TFAIIRIII,amyloid nucleation score,1.37 ± 0.33
PRLKMLRWAGVNQS,amyloid nucleation score,-0.011 ± 0.4
WWLSGA,amyloid nucleation score,0.898 ± 0.35
MILNQMYDKFYSRLSSITSR,amyloid nucleation score,1.31 ± 0.66
YLLYYNKWGLIK,amyloid nucleation score,inactive
GKGDVGESRADCLAYSRRMS,amyloid nucleation score,0.868 ± 0.45
WPVGLFKSGAISAV,amyloid nucleation score,-0.475 ± 0.55
GVWICFRSAMNSIKACFNNR,amyloid nucleation score,5.395 ± 0.04
DLIMETYHLVSKCTFCGIEN,amyloid nucleation score,6.473 ± 0.06
MLGCCPRVSVVPNTV,amyloid nucleation score,-0.467 ± 0.45
IIRDPTACTFLVCVSYME,amyloid nucleation score,6.27 ± 0.059
LHTYYGMCLPRVENISENRV,amyloid nucleation score,inactive
GASSF,amyloid nucleation score,inactive
SVWCWDHSILLGFNLCNRKM,amyloid nucleation score,6.648 ± 0.062
GVVHKDELRGLKVRESSEMG,amyloid nucleation score,0.271 ± 0.48
SVDRVYGSTFIFSRGDR,amyloid nucleation score,8.113 ± 0.022
LRVHESAGSNLVVWIKIVLE,amyloid nucleation score,3.42 ± 0.14
MYTVGWHSTQCFLEDFGRTL,amyloid nucleation score,3.13 ± 0.075
GGLIE,amyloid nucleation score,-0.817 ± 1.1
ENFRGTFKIRRRCCL,amyloid nucleation score,-0.251 ± 0.76
FSFRVMRHSKKGK,amyloid nucleation score,inactive
NVKTKLCAGSKYSFPF,amyloid nucleation score,0.213 ± 0.43
KFWYYIFCGLCMCYDFSKRR,amyloid nucleation score,6.42 ± 0.084
TSLTQDLEMVLSFNFCMGLA,amyloid nucleation score,-0.158 ± 0.44
MRFNDTENWGVSDVISSNDF,amyloid nucleation score,inactive
FCAQITPHRISWLWWQINRQ,amyloid nucleation score,-0.304 ± 1.1
RRPFVRRLFVLKNMFNSLGR,amyloid nucleation score,-0.707 ± 1.1
VSLINFFVNL,amyloid nucleation score,8.418 ± 0.056
GYLYN,amyloid nucleation score,-1.32 ± 1.1
AIRVLCKEYSQSDRMNEWLN,amyloid nucleation score,inactive
PSITPLACHHTRCNW,amyloid nucleation score,-0.881 ± 0.28
GIIDLHAYLFKVHEWAHPHR,amyloid nucleation score,6.07 ± 0.063
WFAKRW,amyloid nucleation score,inactive
RRMVMVSANVSLIEQHYCRN,amyloid nucleation score,5.552 ± 0.042
RNWPVIVVWAKTGCQCSFLM,amyloid nucleation score,-0.544 ± 0.36
CYNVGEGIVARIRGGSKGLK,amyloid nucleation score,0.619 ± 0.81
LIRQMYMGRFYAVNRENH,amyloid nucleation score,-0.743 ± 0.79
SFILD,amyloid nucleation score,inactive
LDYLDSVSINGIVQFKQMVW,amyloid nucleation score,-0.285 ± 0.26
LAGITWISSTVRDVSYMRRR,amyloid nucleation score,2.72 ± 0.1
SYHWTGVFGLVHDFGLCCGS,amyloid nucleation score,0.425 ± 0.38
VDFFVFHLVTDSIMSYAHCM,amyloid nucleation score,0.633 ± 0.66
NVSVGVPLQRTILLDLCTGT,amyloid nucleation score,inactive
VRTWESIVCCI,amyloid nucleation score,4.14 ± 0.051
NIRMVNLLAYVCPEVIREAC,amyloid nucleation score,inactive
RDNRSLTELLNRTMVHFVIM,amyloid nucleation score,inactive
GWEYYSCGENWSLSPLSGYN,amyloid nucleation score,-0.969 ± 0.34
ASMCIGRWIFGEYYSFNMFI,amyloid nucleation score,0.775 ± 0.38
FMLAHVYVNV,amyloid nucleation score,-1.01 ± 0.78
TRASYFCQSTANYSVSRSNM,amyloid nucleation score,1.8 ± 0.3
FVIVNN,amyloid nucleation score,-0.658 ± 1
AFSMRVGDFEIHRFSVVFRR,amyloid nucleation score,-0.247 ± 0.53
SGSHVYFKSCTGLKLPIVLG,amyloid nucleation score,4.498 ± 0.04
LIFSAEMNLIVTDWTVRLSS,amyloid nucleation score,0.496 ± 0.8
KFTSCAVNNDIMLLLVRVGF,amyloid nucleation score,-1.61 ± 0.75
